Assay results published in US20050048594.

Assays:
[1] = tested on: T1, peptide ARKRERAF(3-CF3)SFGHHA
T1 sequence: ARKRERAFSFGHHA

[2] = tested on: T2, CF3-CO N-capped-AKTide (CF3-CO-ARKRERAYSFGHHA)
T2 sequence: ARKRERAYSFGHHA

WtAKT1 recombinant protein (activated protein Ser/Thr kinase AKT1)
phosphorylation of the peptide followed by 19F NMR (25 nM AKT1) [1]: The peptide is a good substrate for AKT1 and trypsin | phosphorylation of the peptide followed by 19F NMR (time to complete conversion; 50 nM AKT1, 30 uM peptide, 131 uM ATP) [2]: The enzymatic reaction is complete after 149 minutes and only the signal of the phosphorylated peptide is visible in the spectrum
